Assay results: publication PMC7905918, “20E-mediated regulation of BmKr-h1 by BmKRP promotes oocyte maturation”

T1: BmKRP (Bombyx mori, UniProt A0A8R1WHU4 1-518)
T1 sequence: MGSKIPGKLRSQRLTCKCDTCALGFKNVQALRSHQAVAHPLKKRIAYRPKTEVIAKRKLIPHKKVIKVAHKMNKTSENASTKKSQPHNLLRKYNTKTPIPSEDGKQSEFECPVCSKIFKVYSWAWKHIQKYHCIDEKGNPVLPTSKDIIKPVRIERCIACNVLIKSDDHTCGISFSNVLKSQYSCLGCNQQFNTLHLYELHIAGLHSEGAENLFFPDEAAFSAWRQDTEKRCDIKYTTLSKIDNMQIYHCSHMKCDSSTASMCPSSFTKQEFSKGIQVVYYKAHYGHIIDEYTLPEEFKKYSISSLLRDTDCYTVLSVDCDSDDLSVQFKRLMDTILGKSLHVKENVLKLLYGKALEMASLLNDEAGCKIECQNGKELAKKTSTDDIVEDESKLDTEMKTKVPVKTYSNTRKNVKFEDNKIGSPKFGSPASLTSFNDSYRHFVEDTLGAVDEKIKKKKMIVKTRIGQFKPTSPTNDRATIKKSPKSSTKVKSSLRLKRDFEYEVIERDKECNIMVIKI

B1: -248~-217 mutant probe 6 (left flank mutated) (dsDNA)
DNA 1: GGCGGCCCACATCCGAAAACGCAATAATCATT
DNA 2: AATGATTATTGCGTTTTCGGATGTGGGCCGCC
B2: BmKr-h1 20E CRE -248~-217 WT probe (dsDNA)
DNA 1: TTATTAAAACATCCGAAAACGCAATAATCATT
DNA 2: AATGATTATTGCGTTTTCGGATGTTTTAATAA
B3: -248~-217 mutant probe 7 (right flank mutated) (dsDNA)
DNA 1: TTATTAAAACATCCGAAAACGACCGCCGACGG
DNA 2: CCGTCGGCGGTCGTTTTCGGATGTTTTAATAA
B4: -248~-217 mutant probe 4 (central … region mutated) (dsDNA)
DNA 1: TTATTAACCACGAATCCCCATAAATAATCATT
DNA 2: AATGATTATTTATGGGGATTCGTGGTTAATAA
B5: -248~-217 mutant probe 5 (both flanks mutated) (dsDNA)
DNA 1: GGCGGCCCACATCCGAAAACGACCGCCGACGG
DNA 2: CCGTCGGCGGTCGTTTTCGGATGTGGGCCGCC

Experiments:
Conditions in all cases: protein: ivt; label: 5' biotin; blunt
BmKRP [1] = biological target: T1, BmKRP; test: EMSA; Discussion calls it weaker (citing Fig. 3f); EMSA: 1x binding buffer (LightShift kit), 2.5% glycerol, 0.05% NP-40, 50 mM KCl, 5 mM MgCl2, 4 mM EDTA, 1 ug poly dI-dC, 20 fmol probe, room temperature 20 min; pull-down: 10 mM HEPES pH 7.6, 100 mM K-glutamate, 80 mM KCl, 10 mM Mg acetate, 4 C
BmKRP [2] = biological target: T1, BmKRP; test: EMSA; competed by 50-fold unlabeled probe; EMSA: 1x binding buffer (LightShift kit), 2.5% glycerol, 0.05% NP-40, 50 mM KCl, 5 mM MgCl2, 4 mM EDTA, 1 ug poly dI-dC, 20 fmol probe, room temperature 20 min; pull-down: 10 mM HEPES pH 7.6, 100 mM K-glutamate, 80 mM KCl, 10 mM Mg acetate, 4 C
BmKRP [3] = biological target: T1, BmKRP; test: EMSA; EMSA: 1x binding buffer (LightShift kit), 2.5% glycerol, 0.05% NP-40, 50 mM KCl, 5 mM MgCl2, 4 mM EDTA, 1 ug poly dI-dC, 20 fmol probe, room temperature 20 min; pull-down: 10 mM HEPES pH 7.6, 100 mM K-glutamate, 80 mM KCl, 10 mM Mg acetate, 4 C

| Binder | binding result (BmKRP [1]) | binding result (BmKRP [3]) | also measured |
| --- | --- | --- | --- |
| B1 | binds |  |  |
| B2 |  |  | binding result (BmKRP [2]): binds |
| B3 | binds |  |  |
| B4 |  | binds |  |
| B5 |  | no binding |  |
